Data taken from patent US20210300999A1 (published 2021).

Biological target: SARS-CoV-2 prefusion-stabilized trimeric spike ectodomain (S2Pecto) (SARS-CoV-2;, UniProt P0DTC2 14-1213; P10104 458-484)
Assay: ELISA

B1: COV2-2196 (antibody, V domains shown)
VH: QMQLVQSGPEVKKPGTSVKVSCKASGFTFMSSAVQWVRQARGQRLEWIGWIVIGSGNTNYAQKFQERVTITRDMSTSTAYMELSSLRSEDTAVYYCAAPYCSSISCNDGFDIWGQGTMVTVSS
VL: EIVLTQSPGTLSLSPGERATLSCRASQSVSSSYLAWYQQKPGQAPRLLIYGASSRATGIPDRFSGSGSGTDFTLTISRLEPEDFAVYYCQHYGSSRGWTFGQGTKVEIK
**Q.** How did the IC50 turn out when B1 was run?
**A.** The IC50 was 0.058 mg/L.
